Measurements as given in the supplement of paper PMC7125110.
± gives the standard error. For part of these data: This sample holds only a part of the variants without activity.

B1: glmS ribozyme (parent)
chain: AUAAAAGCGCCAGAACUACAGAAAUGUAGUUGACGAGGAGGAGGUUUAUCGAAUUUUCGGCGGAUGCCUCCAAA

Experiments:
Conditions in all cases: with glucosamine-6-phosphate
glucosamine-6-phosphate [1] = variants of: B1; assay: kcat; higher = faster cleavage; RNA array
Method in brief: (§1)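 Over ~14 h at 37 °C, tiles were imaged as glucosamine-6-phosphate (40 μM to 10 mM) in HEPES/KCl/Mg(OAc)2 buffer flowed across sequenced MiSeq chips. The chips carried barcoded ribozyme variants transcribed in situ by E. coli RNA polymerase and tracked with a hybridised Cy3 probe. After normalisation to baseline and to non-cleaving reference variants, one- or two-exponential decay fits of per-tile medians gave kobs. kcat and KM followed from weighted Michaelis–Menten fits across concentrations.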

glucosamine-6-phosphate [2] = variants of: B1; assay: KM; higher = weaker cofactor use; RNA array
Method in brief: as §1

glucosamine-6-phosphate [3] = variants of: B1; assay: self-cleavage kobs at 40 uM GlcN6P; higher = faster cleavage; RNA array
Method in brief: as §1

glucosamine-6-phosphate [4] = variants of: B1; assay: self-cleavage kobs at 160 uM GlcN6P; higher = faster cleavage; RNA array
Method in brief: as §1

glucosamine-6-phosphate [5] = variants of: B1; assay: self-cleavage kobs at 640 uM GlcN6P; higher = faster cleavage; RNA array
Method in brief: as §1

glucosamine-6-phosphate [6] = variants of: B1; assay: self-cleavage kobs at 2500 uM GlcN6P; higher = faster cleavage; RNA array
Method in brief: as §1

glucosamine-6-phosphate [7] = variants of: B1; assay: self-cleavage kobs at 10000 uM GlcN6P; higher = faster cleavage; RNA array
Method in brief: as §1

Variant	kcat (glucosamine-6-phosphate [1])	KM (glucosamine-6-phosphate [2])	self-cleavage kobs at 40 uM GlcN6P (glucosamine-6-phosphate [3])	self-cleavage kobs at 160 uM GlcN6P (glucosamine-6-phosphate [4])	self-cleavage kobs at 640 uM GlcN6P (glucosamine-6-phosphate [5])	self-cleavage kobs at 2500 uM GlcN6P (glucosamine-6-phosphate [6])	self-cleavage kobs at 10000 uM GlcN6P (glucosamine-6-phosphate [7])
AUAAAAGCGCCAGAACUACAGAAAUGUAGUGGACGAGGAGGAGGUUUAUCGAAUUAUCGGCGGAUGCCUCCAAA [U31G U56A]	0.00739 ± 0.00043 s⁻¹	4370 ± 320 µM	6.8e-05 ± 9.6e-06 s⁻¹	0.000307 ± 0.00014 s⁻¹	0.000903 ± 0.00017 s⁻¹	0.00263 ± 0.0008 s⁻¹	0.00519 ± 0.00083 s⁻¹
AUAAAAGCGCCAGAACUACAGAAAUGUAGUGGACGAGGAGGAGGUUUAUCGAAUUUUCGGCGGAUCCCUCCAAA [U31G G66C]	0.000137 ± 2.5e-05 s⁻¹	1360 ± 590 µM			4.89e-05 ± 1.1e-05 s⁻¹	7.89e-05 ± 1.3e-05 s⁻¹	0.000146 ± 3.1e-05 s⁻¹
AUAAAAGCGCCAGAACUACAGAAAUGUAGUGGACGAGGAGGAGGUUUAUCGAAUUGUCGGCGGAUGUCUCCAAA [U31G U56G C67U]	0.00109 ± 0.00017 s⁻¹	2910 ± 800 µM		8.73e-05 ± 3.2e-05 s⁻¹	0.000176 ± 5.1e-05 s⁻¹	0.000493 ± 0.00014 s⁻¹	0.00086 ± 0.00015 s⁻¹
AUAAAAGCGCCAGAACUACAGAAAUGUAGUUAACGAGGAGGAGGUUUAUCGAGUUUUCGGCGGAUGCCUCCAAA [G32A A53G]	0.00285 ± 0.00095 s⁻¹	1980 ± 950 µM	5.52e-05 ± 9e-06 s⁻¹	0.000222 ± 3.2e-05 s⁻¹	0.00114 ± 0.0002 s⁻¹	0.00106 ± 0.00021 s⁻¹	0.00294 ± 0.00036 s⁻¹
AUAAAAGCGCCAGAACUACAGAAAUGUAGUGGACGAGGAGGAGGUUUAGCGAAUUUUCGGCGGAUGCCUCCAAA [U31G U49G]	0.000191 ± 2.6e-06 s⁻¹	2140 ± 89 µM			4.38e-05 ± 1.9e-05 s⁻¹	0.000102 ± 1.4e-05 s⁻¹	0.000157 ± 1.4e-05 s⁻¹
AUAAAAGCGCCAGAACUACAGAAAUGUAGUGGACGAGGAGGAGGUUUAUCGAAUUUUCGGCUGAUGCCUCGAAA [U31G G62U C71G]	< 1e-05 s⁻¹						
AUAAAAGCGCCAGAACUACAGAAAUGUAGUGGACGAGGAGGAGGUAUAUCGAAUUUUCGGCGGAUGCCUCCAAA [U31G U46A]	0.000771 ± 0.00021 s⁻¹			0.000124 ± 3.6e-05 s⁻¹	0.000258 ± 6.7e-05 s⁻¹	0.000954 ± 0.00016 s⁻¹	0.000614 ± 0.0001 s⁻¹
AUAAAAGCGCCAGAACUACAGAAAUGUAGUGGACGAGGAGGAGGAUUAUCGAAUUUUCGGCGGAUGCCUCCAAA [U31G U45A]	0.0285 ± 0.0073 s⁻¹	2180 ± 720 µM	0.000531 ± 0.00011 s⁻¹	0.00206 ± 0.0004 s⁻¹	0.00653 ± 0.0013 s⁻¹	0.0105 ± 0.0037 s⁻¹	0.0291 ± 0.0063 s⁻¹
AUAAAAGCGCCAGAACUACAGAAAUGUAGUUAACGAGGAGGAGGUUUAUCGCAUUUUCGGCGGAUGCCUCCAAA [G32A A52C]	< 1e-05 s⁻¹	128 ± 28 µM	< 1e-05 s⁻¹		< 1e-05 s⁻¹		< 1e-05 s⁻¹
AUAAAAGCGCCAGAACUACAGAAAUGUAGUUAACGAGGAGGAGGUUUAUCGGAUUUUCGGCGGAUGCCUCCAAA [G32A A52G]	0.000151 ± 1.3e-05 s⁻¹	1760 ± 480 µM			5.19e-05 ± 2e-05 s⁻¹	8.18e-05 ± 1.4e-05 s⁻¹	0.000131 ± 1.5e-05 s⁻¹
AUAAAAGCGCCAGAACUACAGAAAUGUAGUGGACGAGGAGGAGGUUUACCGAAAUUUCGGCGCAUGCGGCCAAA [U31G U49C U54A G63C C68G U69G]	2.53e-05 ± 5.9e-06 s⁻¹		< 1e-05 s⁻¹				
AUAAAAGCGCCAGAACUACAGAAAUGUAGUGGACGAGGAGGAGGUUAAUCGAAUUUUCGGCGGAUGCCUCCAAA [U31G U47A]	0.00848 ± 0.0027 s⁻¹	2290 ± 990 µM	0.000201 ± 2.8e-05 s⁻¹	0.000474 ± 7e-05 s⁻¹	0.00211 ± 0.00035 s⁻¹	0.00332 ± 0.00063 s⁻¹	0.00821 ± 0.0011 s⁻¹
AUAAAAGCGCCAGAACUACAGAAAUGUAGUGGACGAGGAGGAGGUUUAUCGAAUGCUCGGCGGAUGCCUCCAAA [U31G U55G U56C]	0.00133 ± 0.00026 s⁻¹	4490 ± 1500 µM		7.22e-05 ± 2.4e-05 s⁻¹	0.000162 ± 3.4e-05 s⁻¹	0.000395 ± 9.8e-05 s⁻¹	0.000948 ± 0.00012 s⁻¹
AUAAAAGCGCCAGAACUACAGAAAUGUAGUUAACGAGGAGGAGGUUUAUCGAAUUUUCGGCGGGUGCCUCCAAA [G32A A64G]	0.00438 ± 0.00041 s⁻¹	6200 ± 820 µM	2.33e-05 ± 9.5e-06 s⁻¹	0.000104 ± 1.8e-05 s⁻¹	0.000433 ± 5.6e-05 s⁻¹	0.00144 ± 0.00035 s⁻¹	0.00267 ± 0.00027 s⁻¹
